Experimental findings from patent US20160108110A1 (Novartis, published 2016) are described below.

Assay [1] deals with T1, Human ANGPTL4(26-406)-FLAG-His6-Avi (human, UniProt Q9BY76 24-406, biotin on the C-terminal Avi tag in the biotinylated preparations (immobilised form in SET, ELISA and Octet)).
T1 sequence: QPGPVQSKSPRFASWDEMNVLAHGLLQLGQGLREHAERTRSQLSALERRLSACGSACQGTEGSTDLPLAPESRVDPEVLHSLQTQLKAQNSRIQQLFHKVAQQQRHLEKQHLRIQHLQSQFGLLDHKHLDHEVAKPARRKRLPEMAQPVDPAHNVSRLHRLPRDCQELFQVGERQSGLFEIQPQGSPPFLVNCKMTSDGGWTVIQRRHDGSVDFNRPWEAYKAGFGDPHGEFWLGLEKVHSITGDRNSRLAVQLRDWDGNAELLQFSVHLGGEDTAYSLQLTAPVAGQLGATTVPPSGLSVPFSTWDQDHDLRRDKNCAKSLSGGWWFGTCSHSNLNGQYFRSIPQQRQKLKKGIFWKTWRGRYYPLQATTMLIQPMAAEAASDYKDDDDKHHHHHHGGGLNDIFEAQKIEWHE
Nature of the assay: cell-based or functional assay.

Assay [2] has as its target T1, Human ANGPTL4(26-406)-FLAG-His6-Avi. The experiment in a line: SET assay (solution equilibrium titration, MSD), IgG. The method, then:
SET assays were performed as follows. In a 96-well polypropylene plate, a constant concentration of ANGPTL4 antibody was mixed with different concentrations of non-biotinylated human, cyno, mouse, or rat full-length ANPGLT4 protein, or human ANGPTL4 N-terminal domain protein (5-fold serial dilution) and incubated at 22° C. for 14 hours with constant shaking (300 rpm). On a pre-blocked 384-well streptavidin-coated Meso Scale Discovery (MSD) plate biotinylated ANGPTL4 (full-length human, cyno, mouse, or rat ANGPTL4, or human ANGPTL4 N-terminal domain) protein (1 nM, 15 μL per well) was immobilized and washed thereafter.
The equilibrium binding reactions (15 μL per well) were applied to the MSD plate with immobilized ANGPTL4 and incubated for 20 min at 22° C. The unbound material was removed by washing the plate 3 times with wash buffer, and the captured antibody was detected by adding Sulfo-tagged goat anti-human IgG (Meso Scale Discovery). After washing MSD read buffer T was added and the plate was developed using a Sector Imager 6000 (Meso Scale Discovery). The data were transferred to Microsoft Excel for analysis and plotted using GraphPad Prism v6. The KD values were determined by fitting the data to the following equation: […]
where Bₘₐₓ is the signal when no ANGPTL4 protein is present in solution, CAb is the constant concentration of ANGPTL4 antibody in solution, CAg is the concentration of ANGPTL4 in solution, and KD is the equilibrium dissociation constant.

B1: MOR022761 (antibody, human IgG1, lambda, V domains shown)
VH: QVQLVQSGAEVKKPGSSVKVSCKASGGTFQSYAISWVRQAPGQGLEWMGGIIPLFGFANYAQKFQGRVTITADESTSTAYMELSSLRSEDTAVYYCARESYDPYAFDVWGQGTLVTVSS
VL: SYELTQPLSVSVALGQTARITCSGDNLGKYSASWYQQKPGQAPVLVIHQDNNRPSGIPERFSGSNSGNTATLTISRAQAGDEADYYCASRAHSMHVVFGGGTKLTVLG
notes: human IgG1
With B1, the “Reversal of human ANGPTL4 inhibition of human LPL EC50” value in assay [1] was determined as 11 nM. Also, in assay [2], the dissociation constant Kd is 0.189 nM.

B2: MOR022762 (antibody, human IgG1, lambda, V domains shown)
VH: QVQLVQSGAEVKKPGSSVKVSCKASGGTFSSYAISWVRQAPGQGLEWMGGIIPLFGFANYAQKFQGRVTITADESTSTAYMELSSLRSEDTAVYYCARESYDPYAFDVWGQGTLVTVSS
VL: SYELTQPLSVSVALGQTARITCSGDNLGKYSASWYQQKPGQAPVLVIHQDNNRPSGIPERFSGSNSGNTATLTISRAQAGDEADYYCASRAHSMHVVFGGGTKLTVLG
notes: human IgG1
Regarding B2, the “Reversal of human ANGPTL4 inhibition of human LPL EC50” value in assay [1] stood at 4 nM. This molecule showed a dissociation constant (Kd) in assay [2] of 0.107 nM.

B3: MOR022772 (antibody, human IgG1, kappa, V domains shown)
VH: EVQLLESGGGLVQPGGSLRLSCAASGFTFSSYWMHWVRQAPGKGLEWVSGISYDASSTNYADSVKGRFTISRDNSKNTLYLQMNSLRAEDTAVYYCARDSYIYDLHWGFDNWGQGTLVTVSS
VL: DIQMTQSPSSLSASVGDRVTITCRASQDISSYLNWYQQKPGKAPKLLIYAASRLQSGVPSRFSGSGSGTDFTLTISSLQPEDFATYYCQQSYTHPYTFGQGTKVEIKR
notes: human IgG1
Turning to B3, the “Reversal of human ANGPTL4 inhibition of human LPL EC50” value in assay [1] is 5 nM. In addition, in assay [2], the equilibrium dissociation constant (Kd) came out at 0.053 nM.

Usually Kd stands for a measure of binding affinity in units of concentration. A high value points to weaker binding.
